Experiment [1] addresses T1, human CD40-Fc protein (amino acid residue 21-193 of SEQ ID NO: 67 linked to N-terminus of amino acid residue … (human, biotin-labeled in the capture ELISA and in the benchmark blocking ELISA; unlabeled when coated in the ligand blocking ELISA).
T1 construct: also called biotin-labeled human CD40-Fc; human CD40-Fc-biotin
Put plainly: competitive ELISA; biotin human CD40-Fc in solution, competitor coated BM2. As for the experimental part:
(§1) The ability of the mouse anti-CD40 antibodies of the present invention to block the binding of the Benchmark to human CD40 was measured using a competitive ELISA assay. […] The next day, plates were washed with wash buffer, and blocked with 5% w/v non-fatty milk in PBST for 2 hours at 37° C. Plates were then washed again using wash buffer. […] After incubation at 37° C. for 40 minutes, plates were washed 4 times using wash buffer. Then streptavidin conjugated HRP was added and incubated for 40 minutes at 37° C. to detect biotin-labeled human CD40-Fc bound to plates. Plates were washed again using wash buffer. Finally, TMB was added and the reaction was stopped using 1M H₂SO₄, and the absorbance was read at 450 nm. Data were analyzed using Graphpad Prism software and IC₅₀ values were reported.

For experiment [2], the target named is T1, human CD40-Fc protein (amino acid …). Put plainly: capture ELISA; antibody captured, biotin-labeled human CD40-Fc in solution. As for the experimental part: (§2) Plates were washed 4 times with wash buffer (PBS+0.05% Tween-20, PBST) and then blocked with 200 μl/well blocking buffer (5% w/v non-fatty milk in PBST) for 2 hours at 37° C. […] After a final wash, plates were incubated with 100 μl/well ELISA substrate TMB (Innoreagents, Cat # TMB-S-002). The reaction was stopped in 15 minutes at 25° C. with 50 μl/well 1M H₂SO₄, and the absorbance was read at 450 nm and plotted against antibody concentration. Data were analyzed using Graphpad Prism software and EC₅₀ values were reported.

Experiment [3] shares this target. Kind of experiment: competitive ELISA; coated human CD40-Fc, competitor biotin human CD40L-his. As for the experimental part:
Briefly, human CD40-Fc proteins (amino acid residue 21-193 of SEQ ID NO: 67 linked to N-terminus of amino acid residue 99-330 of SEQ ID NO.: 24) were coated on 96-well micro plates at 2 μg/mL in coating buffer (PBS) and incubated overnight at 4° C. The next day, plates were washed with wash buffer (PBS+0.05% Tween-20, PBST), and blocked with 5% w/v non-fatty milk in PBST for 2 hours at 37° C. Plates were then washed again using wash buffer.
(§3) Serially diluted the mouse anti-CD40 antibodies of the present invention or the controls (starting at 200 nM with a four-fold serial dilution) in 2.5% w/v non-fatty milk in PBST were prepared to the plates and incubated with the human CD40-Fc proteins at room temperature for 40 minutes. […] Plates were washed again. 100 μl/well of streptavidin conjugated HRP was added and incubated for 40 minutes at 37° C. Plates were washed again using wash buffer. Finally, TMB was added and the reaction was stopped using 1M H₂SO₄, and the absorbance was read at 450 nm. Data were analyzed using Graphpad Prism software and IC₅₀ values were reported.

Experiment [4] concerns the target T2, full length human CD40 (uniprot # P25942-1) on the membrane of 293T-CD40 cells (human, UniProt P25942 21-277).
T2 construct: also called cell surface CD40
Put plainly: flow cytometry on 293T-CD40 cells, PE-labeled secondary antibody, MFI. As for the experimental part:
(§4) 2×10⁵ cells per well in 96 well-plates were incubated with the mouse anti-CD40 antibodies or the controls of various concentrations in FACS buffer for 40 minutes on ice. […] Following an incubation of 40 minutes at 4° C. in dark, cells were washed three times and resuspended in FACS buffer. Fluorescence was measured using a Becton Dickinson FACS Canto II-HTS equipment and plotted against antibody concentration.

The target in experiment [5] is T2, full length human CD40 (uniprot # …). Put plainly: flow cytometry on 293T-CD40 cells. As for the experimental part: as §4
The target is the same in experiment [6]. Put plainly: cell-based or functional assay.
Experiment [7] shares this target. Put plainly: flow cytometry on 293T-CD40 cells. Here is the method: as §4
This is another data set of the same source.

Experiment [8] shares this target. Kind of experiment: cell-based or functional assay. The source holds these as a separate data set.
Experiment [9] deals with T1, human CD40-Fc protein (amino acid …). Put plainly: benchmark blocking ELISA: BM2 (Selicrelumab) coated as competitor, antibody titrated in biotin-labeled human CD40-Fc solution, streptavidin-HRP, OD(450-630). As for the experimental part:
as §1

Experiment [10] shares this target. Kind of experiment: competitive ELISA; coated human CD40-Fc, competitor biotin human CD40L-his. As for the experimental part: as §3
The source holds these as a separate data set.

The target in experiment [11] is T3, Human CD40-his protein (Acro biosystems, Cat # CD0-H5228) (human, UniProt P25942 21-193).
T3 construct: Bought reagent; not shown: his tag
Kind of experiment: SPR, Biacore; human CD40-his. The source says:
(§5) Briefly, goat anti-mouse IgG (GE healthcare, Cat # BR100838, Mouse Antibody Capture Kit) was covalently linked to a CM5 or a Protein G chip (carboxy methyl dextran coated chip) via primary amines, using a standard amine coupling kit provided by Biacore (GE healthcare, Pittsburgh, Pa., USA). Un-reacted moieties on the biosensor surface were blocked with ethanolamine. […] Then, human CD40-his (Acro biosystems, Cat # CD0-H5228) or cynomolgus monkey CD40-his protein (Acro biosystems, Cat # CD0-052H6) in HBS EP buffer (provided by Biacore) was flowed onto the chip at a flow rate of 30 μL/min. The antigen-antibody association kinetics was followed for 2 minutes and the dissociation kinetics was followed for 10 minutes. The association and dissociation curves were fit to a 1:1 Langmuir binding model using BIA evaluation software.

The target in experiment [12] is T1, human CD40-Fc protein (amino acid …). Kind of experiment: ligand blocking ELISA: human CD40-Fc coated, antibody titrated, then biotin-labeled human CD40L-his (blocked ligand), streptavidin-HRP, OD(450-630). Here is the method: as §3
Experiment [13] shares this target. Put plainly: capture ELISA; antibody captured, biotin-labeled human CD40-Fc in solution. Here is the method:
as §2
This is another data set of the same source.

For experiment [14] the target is unchanged. Kind of experiment: capture ELISA (antibody captured on coated goat anti-human IgG F(ab')2, biotin-labeled human CD40-Fc in solution, streptavidin-HRP, OD(450-630)).
Experiment [15] addresses T2, full length human CD40 (uniprot # …). Kind of experiment: flow cytometry on 293T-CD40 cells, PE goat anti-human IgG Fc-gamma secondary antibody, MFI. Here is the method:
Following an incubation of 40 minutes at 4° C. in dark, cells were washed three times and resuspended in FACS buffer. Fluorescence was measured using a Becton Dickinson FACS Canto II-HTS equipment and plotted against antibody concentration.

Experiment [16] has as its target T3, Human CD40-his protein (Acro …). Put plainly: SPR, Biacore; antibody captured, human CD40-his flowed.
Source text: as §5

Experiment [17] has as its target T4, cynomolgus monkey CD40-his protein (Acro biosystems, Cat # CD0-052H6) (cynomolgus monkey, UniProt G7PG38 21-193).
T4 construct: Bought reagent; also called Cynomolgus CD40-his
Kind of experiment: SPR, Biacore; cynomolgus CD40-his.
Source text: as §5

The values that follow come from patent US20200332017A1 (SALUBRIS CHENGDU BIOTECH, published 2020).

Where two headings read alike, the source gives them in different places.

B1: mouse anti-CD40 monoclonal antibody 1B2 (antibody, V domains shown)
VH: EVQLQQSGPELVKPGASVKMSCKASGYTFTDYVMHWVKQKPGQGLECIGYINPYNDGTKYNEKFKGKATLTSDKSSSAAYLELSSLTSEDSAVYYCARGFLRESWFGYWGQGTLVTVSA
VL: DVLMTQTPLSLPVSLGDQASISCRSSQNIVHSNGNTYLDWYLQKPGQSPKLLIYKVSNRFSGVPDRFSGSGSGTDFTLKINRVEAEDLGVYYCFQGSHVPPTFGAGTKLELK
notes: Purified from hybridoma supernatant; also called Mouse 1B2
For B1, the values for the IC50 in [1] and in [3] were 4.76 nM and 315 nM, respectively. Moreover, the EC50 in [2] amounted to 47.1 nM; in experiment [5] it was 2.54 nM. For the same molecule, the “EC50 (read off the curve)” value in experiment [4] is roughly 3 nM. The “Cell-based Reporter assay (EC50, nM)” value in [6] is 6.36 nM.

B2: humanized antibody huC1C1-V7 (antibody, human IgG1, kappa, V domains shown)
VH: EVQLVESGGGVVQPGRSLRLSCAASGFTFSNYGMSWVRQAPGKGLEWVASISSGGDDTYYPDNVKGRFTISRDNSKNTLYLQMNSLRAEDTAVYYCTRAGGKAMDYWGQGTLVTVSS
VL: EIVLTQSPATLSLSPGERATLSCRASQSIRDNLHWYQQKPGQAPRLLIYYASQSISGIPARFSGSGSGTDFTLTISSLEPEDFAVYYCQQFNSWPLTFGQGTKVEIKR
notes: Human IgG1/kappa; also called humanized C1C1-V7
With B2, the EC50 amounted to 1.85 nM in experiment [7] and 0.248 nM in experiment [13]. Besides, the “cell based functional assay (EC50, nM)” value in [8] stood at 4.25 nM. For the same molecule, the figures for the IC50 in [1] and in [10] were 0.111 nM and 3 nM, respectively. In addition, the “IC50 (read off the curve)” value in experiment [9] was roughly 0.02 µg/mL; in [12], roughly 0.5 µg/mL. For the same molecule, the Kd in experiment [11] was determined as 11.3 nM; in [16] it was 11.9 nM; in experiment [17] it was 4.04 nM. Moreover, the “EC50 (read off the curve)” value in experiment [14] was roughly 0.04 µg/mL; in experiment [15], roughly 0.3 µg/mL. The same molecule displayed a koff in experiment [16] of 0.00968 s⁻¹. Also, the kon in experiment [16] was 814000 M⁻¹ s⁻¹.
